Measurements from the supplement of paper PMC7877785.
± gives the uncertainty stated by the source.

Test: self-splicing fitness, log relative to wild type (ln ratio); higher = more splicing; Tetrahymena group I intron in knt gene, E. coli kanamycin selection, DiMSum; sequences stand for … in CUCUCU…GGAGGGAAAAGUUAUCAGGCAUGCACCUGGUAGCUAGUCUUUAAACCAAUAGAUUGCAUCGGUUUAAAAGGCAAGACCGUCAAAUUGCGGGAAAGGGGUCAACAGCCGUUCAGUACCAAGUCUCAGGGGAAACUUUGAGAUGGCCUUGCAAAGGGUAUGGUAAUAAGCUGACGGACAUGGUCCUAACCACGCAGCCAAGUCCUAAGUCAACAGAUCUUCUGUUGAUAUGGAUGCAGUUCACAGACUAAAUGUCGGUCGGGGAAGAUGUAUUCUUCUCAUAAGAUAUAGUCGGACCUCUCCUUAAUGGGAGCUAGCGGAUGAAGUGAUGCAACACUGGAGCCGCUGGGAACUAAUUUGUAUGCGAAAGUAUAUUGAUUAGUUUUGGAGUACUCGUGGUCG
How it was run: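 A randomised library covering all eight P1ex-region intron nucleotides was built with the intron in the knt kanamycin-resistance gene on pET-22b(+) and held in E. coli BL21(DE3). Cells were grown overnight at 37°C or 30°C on LB agar, with or without 25 μg/mL kanamycin, plus 100 μg/mL carbenicillin, 50 μM IPTG and 0.2% rhamnose, and pooled colonies were amplicon-sequenced on an Illumina HiSeq 2500. DiMSum fitness is the error-weighted combination of wild-type-normalised replicate fold changes, kanamycin versus none.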

Sequence: AGCGAGCAAUAUUACGGAUC
- self-splicing fitness (ln) (30 °C): -3.42 ± 0.33
- self-splicing fitness (ln) (37 °C): -1.44 ± 0.49

Sequence: UUUGAGCAAUAUUACGGGGA
- self-splicing fitness (ln) (37 °C): -2.42 ± 0.41

Sequence: CUCAAGCAAUAUUACGCCAA
- self-splicing fitness (ln) (30 °C): -3.55 ± 0.33
- self-splicing fitness (ln) (37 °C): -2.37 ± 0.31

Sequence: UAUCAGCAAUAUUACGGGGA
- self-splicing fitness (ln) (30 °C): -1.76 ± 0.094
- self-splicing fitness (ln) (37 °C): -0.643 ± 0.1

Sequence: CGAAAGCAAUAUUACGAGUA
- self-splicing fitness (ln) (30 °C): -3.07 ± 0.19
- self-splicing fitness (ln) (37 °C): -2.36 ± 0.18

Sequence: AGCUAGCAAUAUUACGAUUA
- self-splicing fitness (ln) (30 °C): -2.31 ± 0.21
- self-splicing fitness (ln) (37 °C): -0.806 ± 0.14

Sequence: UUUUAGCAAUAUUACGCUUG
- self-splicing fitness (ln) (30 °C): -0.327 ± 0.2
- self-splicing fitness (ln) (37 °C): -0.13 ± 0.19

Sequence: AACAAGCAAUAUUACGAGUU
- self-splicing fitness (ln) (30 °C): -3.35 ± 0.099
- self-splicing fitness (ln) (37 °C): -1.5 ± 0.091

Sequence: CGUAAGCAAUAUUACGUAUU
- self-splicing fitness (ln) (37 °C): -0.991 ± 0.15

Sequence: UUAGAGCAAUAUUACGGGCA
- self-splicing fitness (ln) (30 °C): -2.25 ± 0.12
- self-splicing fitness (ln) (37 °C): -1.54 ± 0.18

Sequence: GGGAAGCAAUAUUACGCUUU
- self-splicing fitness (ln) (30 °C): -3.54 ± 0.24

Sequence: GACGAGCAAUAUUACGCCGU
- self-splicing fitness (ln) (30 °C): -2.58 ± 0.45

Sequence: CCAGAGCAAUAUUACGCUUG
- self-splicing fitness (ln) (30 °C): -3.27 ± 0.26
- self-splicing fitness (ln) (37 °C): -2.93 ± 0.35

Sequence: AAGUAGCAAUAUUACGUGGG
- self-splicing fitness (ln) (30 °C): -3.49 ± 0.2
- self-splicing fitness (ln) (37 °C): -3.24 ± 0.23

Sequence: UUUAAGCAAUAUUACGGACG
- self-splicing fitness (ln) (30 °C): -0.647 ± 0.15
- self-splicing fitness (ln) (37 °C): 0.235 ± 0.19

Sequence: UAUUAGCAAUAUUACGGUUU
- self-splicing fitness (ln) (30 °C): -3.75 ± 0.37
- self-splicing fitness (ln) (37 °C): -2.08 ± 0.2

Sequence: AGUAAGCAAUAUUACGCCCU
- self-splicing fitness (ln) (30 °C): -0.35 ± 0.17
- self-splicing fitness (ln) (37 °C): -0.62 ± 0.16

Sequence: CCAGAGCAAUAUUACGUGAG
- self-splicing fitness (ln) (30 °C): -0.95 ± 0.061
- self-splicing fitness (ln) (37 °C): -0.428 ± 0.074

Sequence: AACCAGCAAUAUUACGAGAG
- self-splicing fitness (ln) (30 °C): -3.44 ± 0.15
- self-splicing fitness (ln) (37 °C): -2.06 ± 0.12

Sequence: AUUCAGCAAUAUUACGCAAC
- self-splicing fitness (ln) (30 °C): -2.05 ± 0.18
- self-splicing fitness (ln) (37 °C): -0.188 ± 0.17

Sequence: AUUAAGCAAUAUUACGCUCA
- self-splicing fitness (ln) (30 °C): -0.292 ± 0.068
- self-splicing fitness (ln) (37 °C): -0.258 ± 0.091

Sequence: UGCAAGCAAUAUUACGUCCU
- self-splicing fitness (ln) (30 °C): -0.656 ± 0.094
- self-splicing fitness (ln) (37 °C): -0.908 ± 0.098

Sequence: UCGGAGCAAUAUUACGAGCU
- self-splicing fitness (ln) (30 °C): -2.89 ± 0.27

Sequence: AAGUAGCAAUAUUACGUUUG
- self-splicing fitness (ln) (30 °C): -2.41 ± 0.13
- self-splicing fitness (ln) (37 °C): -1.49 ± 0.13

Sequence: CCCGAGCAAUAUUACGGCAA
- self-splicing fitness (ln) (30 °C): -3.03 ± 0.35
- self-splicing fitness (ln) (37 °C): -2.32 ± 0.22

Sequence: CAUGAGCAAUAUUACGUGAC
- self-splicing fitness (ln) (30 °C): -3.75 ± 0.25

Sequence: ACACAGCAAUAUUACGUUGG
- self-splicing fitness (ln) (30 °C): -3 ± 0.089
- self-splicing fitness (ln) (37 °C): -1.2 ± 0.081

Sequence: CCCUAGCAAUAUUACGGGAC
- self-splicing fitness (ln) (30 °C): -2.48 ± 0.18
- self-splicing fitness (ln) (37 °C): -1.87 ± 0.23

Sequence: AAAGAGCAAUAUUACGCAAA
- self-splicing fitness (ln) (30 °C): -3.16 ± 0.43
- self-splicing fitness (ln) (37 °C): -2.75 ± 0.34

Sequence: GAAGAGCAAUAUUACGUAAU
- self-splicing fitness (ln) (30 °C): -3.03 ± 0.2
- self-splicing fitness (ln) (37 °C): -1.22 ± 0.23

Sequence: GAUGAGCAAUAUUACGCUCG
- self-splicing fitness (ln) (30 °C): -3.02 ± 0.3
- self-splicing fitness (ln) (37 °C): -2.75 ± 0.38

Sequence: AUCGAGCAAUAUUACGGGGU
- self-splicing fitness (ln) (30 °C): -3.4 ± 0.21
- self-splicing fitness (ln) (37 °C): -2.52 ± 0.19

Sequence: GCCCAGCAAUAUUACGACAC
- self-splicing fitness (ln) (30 °C): -1.64 ± 0.081
- self-splicing fitness (ln) (37 °C): -0.294 ± 0.11

Sequence: AUUAAGCAAUAUUACGAGAG
- self-splicing fitness (ln) (30 °C): -2.61 ± 0.24
- self-splicing fitness (ln) (37 °C): -1.83 ± 0.27

Sequence: ACACAGCAAUAUUACGAUUG
- self-splicing fitness (ln) (30 °C): -2.22 ± 0.084
- self-splicing fitness (ln) (37 °C): -0.711 ± 0.09

Sequence: UAAGAGCAAUAUUACGGAAC
- self-splicing fitness (ln) (30 °C): -2.54 ± 0.33
- self-splicing fitness (ln) (37 °C): -3.2 ± 0.46

Sequence: ACUCAGCAAUAUUACGCGAC
- self-splicing fitness (ln) (30 °C): -2.16 ± 0.14
- self-splicing fitness (ln) (37 °C): -1.85 ± 0.15

Sequence: UGAGAGCAAUAUUACGAGAG
- self-splicing fitness (ln) (37 °C): -1.16 ± 0.36

Sequence: UUGAAGCAAUAUUACGGUGU
- self-splicing fitness (ln) (30 °C): -3.13 ± 0.17
- self-splicing fitness (ln) (37 °C): -1.16 ± 0.15

Sequence: GGUAAGCAAUAUUACGCGCC
- self-splicing fitness (ln) (30 °C): -2.99 ± 0.33
- self-splicing fitness (ln) (37 °C): -1.48 ± 0.29

Sequence: UAGUAGCAAUAUUACGAUUU
- self-splicing fitness (ln) (30 °C): -1.45 ± 0.1
- self-splicing fitness (ln) (37 °C): -0.988 ± 0.12

Sequence: GUCUAGCAAUAUUACGGACA
- self-splicing fitness (ln) (30 °C): -1.63 ± 0.18
- self-splicing fitness (ln) (37 °C): -0.275 ± 0.14

Sequence: GGGCAGCAAUAUUACGGAUA
- self-splicing fitness (ln) (30 °C): -2.63 ± 0.17
- self-splicing fitness (ln) (37 °C): -1.8 ± 0.13

Sequence: UUUAAGCAAUAUUACGUCUU
- self-splicing fitness (ln) (30 °C): -2.57 ± 0.15
- self-splicing fitness (ln) (37 °C): -1.81 ± 0.16

Sequence: GAUCAGCAAUAUUACGCUUU
- self-splicing fitness (ln) (30 °C): -1.02 ± 0.08
- self-splicing fitness (ln) (37 °C): -0.877 ± 0.11

Sequence: CGGAAGCAAUAUUACGGACG
- self-splicing fitness (ln) (30 °C): -3 ± 0.27
- self-splicing fitness (ln) (37 °C): -2.12 ± 0.44

Sequence: CGACAGCAAUAUUACGUCCU
- self-splicing fitness (ln) (30 °C): -0.518 ± 0.072
- self-splicing fitness (ln) (37 °C): -0.311 ± 0.078

Sequence: GAAAAGCAAUAUUACGGCUA
- self-splicing fitness (ln) (30 °C): -0.156 ± 0.082
- self-splicing fitness (ln) (37 °C): 0.451 ± 0.082

Sequence: UUCCAGCAAUAUUACGCCUA
- self-splicing fitness (ln) (30 °C): -0.199 ± 0.076
- self-splicing fitness (ln) (37 °C): 0.206 ± 0.091

Sequence: AACGAGCAAUAUUACGGAUC
- self-splicing fitness (ln) (30 °C): -2.26 ± 0.19
- self-splicing fitness (ln) (37 °C): -2.31 ± 0.17
